Experiment [1] concerns E18-19 rat hippocampal neurons. Kind of experiment: Neurofilament protein in hippocampal cultures. Type of experiment: cell-based. On the procedure:
Hippocampi were dissected from E18-19 rat embryos of Sprague-Dawley rats, and collected in F10 medium. The tissues were minced, rinsed twice with F10 medium (Gibco) and trypsinized with 0.25% trypsin (Gibco) for 20 minutes at 37° C. Trypsin was inactivated by the addition of a serum-containing medium composed of minimal essential medium (MEM) supplemented with fetal calf serum (FCS, 10%), glutamine (2 mM), penicillin (25 U/ml) and streptomycin (25 ug/ml). Dissociated cells obtained by gentle trituration were collected and centrifuged at low speed (500 rpm) for 30 seconds. The centrifugation was repeated twice, and the cell pellets were then resuspended in serum-containing medium. The cells were then plated onto 6 mm wells or 35 mm dishes that were coated with polyornithine (10 ug/ml) and laminin (10 ug/ml). In most of the experiments, the cells were plated at a low density of approximately 71,000 cells/cm^2. Five to six hours following the plating of cells, medium was changed to a serum-free medium containing 1% N3 and penicillin-streptomycin (25 units/ml and 25 ug/ml, respectively), at which time CNTF was added. Medium was changed every three to four days, with re-addition of the factor.
Neurofilament protein was quantitated according to the method of Doherty et al. (1984, J. Neurochem. 42:1115-1122), as is described in Section 14.1.3.
The CNTF used in all assays was recombinant rat CNTF, expressed and purified as described in Example Section 12 supra.

The subject of experiment [2] is Ventral spinal cord neurons. The experiment is described as follows: E14 rat ventral spinal cord neuron cultures in defined medium. Type of experiment: cell-based. The following applies: CNTF 2 μl/ml. An excerpt: Sprague-Dawley rats (HSD) were used for all experiments. Pregnant rats were sacrificed by carbon dioxide asphyxiation, and the embryos were rapidly removed and placed in ice-cold Puck's saline G for further dissection.
Spinal cords were removed aseptically from rat embryos on the 14th day of gestation. The spinal cord was severed caudal to the bulb, freed of sensory ganglia and meninges. The cord was then subdivided into ventral and mediodorsal segments for separate cultures. The cord tissues were minced into small pieces and mechanically dissociated by trituration through a Pasteur pipet in defined culture medium consisting of 50% basal medium Eagle (BME; Gibco) and 50% Ham's nutrient mixture F12 (Gibco) supplemented with glucose (33 mM), glutamine (2 mM, NaHCO3 (15 mM), HEPES (10 mM), insulin (25 μg/ml), transferrin (100 μg/ml) putrescine (60 μM), progesterone (20 nM), Na selenite (30 nM), penicillin G (0.5 μg/ml), streptomycin (0.5 μg/ml), and bovine serum albumin (2.5 μg/ml). Trituration was repeated twice and the supernatants were pooled and filtered through a nylon (Nitex, Tetko) filter (40 μm). Total cell number yielded was determined by hemocytometer counting in the presence of trypan blue. Dissociated ventral cells were then plated at a density of 0.5 million cells/35 mm dish coated with poly-D-lysine (10 μg/ml). Dissociated mediodorsal cells were plated at a density of 1.5 million/35 mm dish coated with poly-D-lysine (10 μg/ml), poly-L-ornithine (10 μg/ml), or poly-L-ornithine with laminin (5 μg/ml). Treatments to these cultures were added at the time of plating. Cultures were maintained at 37° C. in a 95% air/5% CO2 atmosphere at nearly 100% relative humidity. Culture medium was changed every three to four days.

For experiment [3], the system named is Ventral spinal cord neurons. The experiment is described as follows: Choline acetyltransferase (CAT) activity in ventral spinal cord cultures. Type of experiment: cell-based, rat. On the procedure: Sprague-Dawley rats (HSD or Zivic-Miller) were used for all experiments. Pregnant rats (E14) were sacrificed as described in 10.1.1.
Spinal cords were removed aseptically from rat embryos as described in 10.1.2. The cord tissues were minced into small pieces and incubated in 0.1% trypsin (GIBCO) and 0.01% deoxyribonuclease type 1 (Sigma) at 37° C. for 20 minutes. Trypsin solution was then removed, rinsed and replaced with medium consisting of 45% Eagle's minimum essential medium (MEM), 45% Ham's nutrient mixture F12 (F12), 5% fetal calf serum (GIBCO), 5% horse serum (GIBCO) glutamine (2 mM), penicillin G (0.5 U/ml), and streptomycin (0.5 ug/ml). This was then mechanically dissociated twice by gentle trituration through a Pasteur pipet in the same medium, and the supernatants were pooled and filtered through a nylon filter (Nitex, Tetko; 40 um). Total cell number yielded was determined by hemocytometer counting in the presence of trypan blue. Dissociated ventral cells were then plated at a density of approximately 50,000 cells/cm^2 on dishes coated with poly-L-ornithine (10 ug/ml) and laminin (5 ug/ml). Treatments were given on the day of plating, except for delayed addition experiments in which treatments were given on days 2 or 6. Cultures were maintained at 37° C. in 95% air/5% CO2 atmosphere at nearly 100% relative humidity. Culture medium was changed every 3 to 4 days. A mitotic inhibitor, cytosine arabinoside (Ara C; 0.5 uM), was added on day 2 to reduce the number of nonneuronal cells. On day 7, cells were harvested for measurements of choline acetyltransferase (CAT; Fonnum, 1975 J. Neurochem. 24:407-409) and protein (Bradford, 1976, Annal. Biochem. 72:248-254) levels or fixed in 4% paraformaldehyde for NF assay (Doherty et al., 1984, J. Neurochem. 42:1116-1122) and immunocytochemistry. Some cultures were grown in defined medium consisting of 50% F12 and 50% MEM, glutamine (2 mM), insulin (5 ug/ml), transferrin (100 ug/ml), progesterone (20 nM), putrescine (10 uM), and sodium selenite (30 nM) (Bottenstein and Sato, 1979, PNAS 76:514-517). In these cultures sera-containing medium was replaced with defined medium on day 1.
Cultures were harvested by lysing the cells in a 20 mM Tris-HCl (pH 8.6) solution containing 0.1% Triton X-100. Two microliters of the cell lysate was removed and assayed for CAT activity according to the micro-Fonnum procedure (Fonnum, 1975, J. Neurochem. 24:407-409). The final substrate composition consisted of 0.2 mM [1-^14C] Acetyl-CoA (NEN, 54.4 mCi/mmol), 300 mM NaCl, 8 mM choline bromide, 20 mM EDTA, and 0.1 mM neostigmine in 50 mM NaH2PO4 (pH 7.4) buffer. At these enzyme and substrate concentrations, the enzymatic reaction was linear for 90-120 minutes. The specificity of the induction for CAT was tested by the addition of a specific inhibitor of CAT activity, N-hydroxyethyl-4-(1-napthylvinyl) pyridium (HNP), during the assay (White and Cavallito, 1970, J. Neurochem. 17:1579-1589).

The results in this text go back to patent US6602687B1, “DNA encoding human ciliary neurotrophic factor and method for producing the protein encoded thereby” (Regeneron Pharmaceuticals, Inc., priority 1989, dated 2003).

B1: CNTF: ciliary neurotrophic factor; recombinant rat CNTF in Sections 10, 15, 17, purified rat sciatic nerve CNTF in Section 11; see endpoint conditions (protein, UniProt P20294 1-200, looked up)
Ciliary neurotrophic factor: MAFAEQTPLTLHRRDLCSRSIWLARKIRSDLTALMESYVKHQGLNKNINLDSVDGVPVASTDRWSEMTEAERLQENLQAYRTFQGMLTKLLEDQRVHFTPTEGDFHQAIHTLMLQVSAFAYQLEELMVLLEQKIPENEADGMPATVGDGGLFEKKLWGLKVLQELSQWTVRSIHDLRVISSHQMGISALESHYGAKDKQM
On to B1, for which the “effect on neurofilament protein, CNTF added on the third day and cells treated for 8 days” value in experiment [1] (CNTF 10 ng/ml) is “much reduced”. Also, the “CNTF-induced increase in neurofilament protein, addition delayed by 3 days” value in experiment [1] (CNTF 10 ng/ml, measured on the eighth day) is “similarly diminished”. Moreover, in experiment [1] (recombinant rat CNTF 10 ng/ml, day 8), the “maximal increase in neurofilament protein” value was “approximately 5 fold”. Besides, in experiment [1] (recombinant rat CNTF, 8 days), the “concentration at which neurofilament protein reaches a plateau” value was 0.1 ng/mL. Besides, the “time ventral neurons survive in defined medium” value in experiment [2] is > 1 week. Further, in experiment [2] (NGF 50 ng/ml at plating, day 7), the “CAT Activity” value is 959.5 ± 24.32 CPM/dish and the Protein amounted to 45 μg/dish. For the same molecule, the “time after treatment at which increase in CAT activity was apparent” value in experiment [3] turned out to be 3 days. For the same molecule, in experiment [3] (AraC 0.5 uM or serum-free medium, CNTF 10 ng/ml), the “effect on CAT activity with glia reduced to about 5% of total cells” value is listed as “remained unchanged”. Moreover, the “increase in CAT activity over the increase in number of cholinergic neurons” value in experiment [3] (CNTF 10 ng/ml) is recorded as 1.6 fold. Moreover, the “increase in CAT activity, delayed addition at day 2” value in experiment [3] (CNTF 10 ng/ml added on day 2, treated 7 further days) came out at 1.2 fold. In addition, in experiment [3] (CNTF 10 ng/ml added on day 6, treated 7 further days), the “effect on CAT activity, delayed addition at day 6” value was “can no longer influence CAT activity”. For the same molecule, the “increase in CAT activity” value in experiment [3] (CNTF 10 ng/ml, NGF 50 ng/ml, FGF 50 ng/ml at plating, after 7 days in culture) turned out to be 4.0 fold. In addition, the “CNTF concentration of maximal response in CAT activity” value in experiment [3] (day 7) is 1 ng/mL.
